Source: patent US9605080B2, “Antibodies against CD73” (BRISTOL-MYERS SQUIBB COMPANY, priority 2014, dated 2017)

Assays:
[1] = target: T1, endogenous CD73 activity in Calu-6 cells (Homo sapiens, UniProt P21589); test: Dual cell line HTRF cAMP assay (Calu-6 and HEK293/A2AR cells); assay type: cell-based; settings: percentage of inhibition compared to 100 nM 11F11 set to 100%
T1 construct: Calu6 (CD73 endogenous expressors; human pulmonary adenocarcinoma cell line); endogenous in cells; host or cells: Calu6 (human pulmonary adenocarcinoma)
T1 sequence (P21589 27-549): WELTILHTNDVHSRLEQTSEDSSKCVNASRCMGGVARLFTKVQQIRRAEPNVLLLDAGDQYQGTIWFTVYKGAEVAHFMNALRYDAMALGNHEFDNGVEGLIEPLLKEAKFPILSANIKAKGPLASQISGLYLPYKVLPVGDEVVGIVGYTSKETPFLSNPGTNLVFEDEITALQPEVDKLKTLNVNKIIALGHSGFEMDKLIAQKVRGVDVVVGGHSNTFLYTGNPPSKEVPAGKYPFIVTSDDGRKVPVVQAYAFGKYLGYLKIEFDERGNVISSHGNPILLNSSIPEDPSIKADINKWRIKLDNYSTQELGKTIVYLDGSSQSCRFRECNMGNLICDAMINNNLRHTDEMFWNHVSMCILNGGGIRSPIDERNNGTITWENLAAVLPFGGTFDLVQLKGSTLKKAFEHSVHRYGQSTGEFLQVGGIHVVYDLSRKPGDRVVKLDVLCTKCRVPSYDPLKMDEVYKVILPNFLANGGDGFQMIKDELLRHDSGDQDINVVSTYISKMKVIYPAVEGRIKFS
Description: CD73 antibodies were serial diluted with PBS buffer containing 0.2% BSA, and plated 5 μl/well in 384 well white bottom proxiplate (PerkinElmer, Waltham, Mass.). Calu-6 cells were harvested and resuspend in PBS containing 0.2% BSA, then 5 μl of cells (300 cells/well) were added to the plate. The cells were incubated with antibodies for 10 minutes at 37° C. […] The cells were further incubated with AMP for 30 minutes at 37° C. During this time, HEK293/A2AR cells were harvested and diluted to 0.4 million/ml in PBS containing 0.2% BSA. They were added into the assay plate at 5 μl/well and continued to incubate at 37° C. for 1 hr. HRTF assays were performed using the homogenous time-resolved fluorescence (HTRF) HiRange cAMP detection kit (Cisbio, Bedford, Mass.) by adding 10 μl/well cAMP-conjugated d2 and 10μl/well europium cryptate conjugated anti-cAMP antibody in lysis buffer according to the manufacturer's instructions. Plates were incubated at room temperature for 60 minutes and Fluorescence Resonance Energy Transfer (FRET) signals (665 and 615 nM) were read using an EnVision plate reader (PerkinElmer, Waltham, Mass.). The FRET signal was calculated as the ratio of signal from the 665 nm (acceptor) and 615 nm (donor) channels and multiplied by 10,000. IC50 and Ymax were measured. […] All calculations were determined as a percentage of inhibition compared to this control, which was set to 100%.

[2] = Differential scanning calorimetry, thermal stability of CD73 mAbs; assay type: physicochemical; settings: PBS pH 7.1
Description: The thermal stability of CD73 mAbs were determined using a MicroCal Capillary DSC instrument (GE Healthcare). Antibodies were analyzed at a concentrations of 0.5-0.75 mg/ml in PBS pH 7.1. To stabilize the DSC instrument baseline and obtain a consistent thermal history, multiple scans of buffer alone in both the sample and reference cell were recorded prior to sample analysis. Sample scans contained mAb in the sample cell and PBS pH 7.1 in the reference cell. All scans were run from 10-110° C. at a scan rate of 60°/hr using a 5 minute pre-cycle thermostat period and no post-cycle thermostat period. Data (as shown in Table 15 below) were analyzed using MicroCal Origin Cap DSC analysis software. The appropriate buffer-buffer blank scans were subtracted from the sample-buffer data, and the transition midpoint temperature (Tm) values were determined by fitting the data to a non-2-state model. Tm1, Tm2 and Tm3 are the Tms for different domains in the antibodies.

[3] = target: T2, CD73 on NCI-H292 cells (Homo sapiens, UniProt P21589); test: Flow cytometry based cross-blocking on NCI-H292 cells; assay type: binding; settings: FITC-labeled 11F11, 10 ug/mL
T2 construct: maintenance of downregulation of endogenous CD73; endogenous in cells; host or cells: NCI-H292
T2 sequence (P21589 27-549): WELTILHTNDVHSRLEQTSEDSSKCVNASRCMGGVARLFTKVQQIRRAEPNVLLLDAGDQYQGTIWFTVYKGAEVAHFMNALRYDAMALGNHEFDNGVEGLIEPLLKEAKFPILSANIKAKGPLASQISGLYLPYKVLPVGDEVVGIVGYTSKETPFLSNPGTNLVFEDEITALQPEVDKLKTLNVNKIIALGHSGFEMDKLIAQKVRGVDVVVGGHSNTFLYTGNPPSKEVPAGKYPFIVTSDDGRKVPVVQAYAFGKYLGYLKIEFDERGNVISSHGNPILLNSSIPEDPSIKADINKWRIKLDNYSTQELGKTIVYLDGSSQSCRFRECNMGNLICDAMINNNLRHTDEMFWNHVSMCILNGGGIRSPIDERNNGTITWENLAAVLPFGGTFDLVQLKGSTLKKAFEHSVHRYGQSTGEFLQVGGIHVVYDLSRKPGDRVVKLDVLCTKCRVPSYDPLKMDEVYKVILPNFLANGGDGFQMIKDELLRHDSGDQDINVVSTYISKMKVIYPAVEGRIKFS
Description: The antibodies were also subjected to flow cytometry based cross-blocking. The experiment was conducted as follows using one set of labeled fluorescently labeled antibody and a second set of unlabeled antibody: 100000 NCI-H292 cells were seeded per well. The plate was spun down and the cells were resuspended in 100 uL 2% FBS in PBS per well. The cells were blocked on ice for 20 min. Unlabeled antibody, as indicated, in 2% FBS in PBS was added to each well. […] 6 wells of cells were incubated without antibody, and were resuspended in 100 uL 2% FBS in PBS only (for controls). The cells were then incubated on ice for 30 min. The cells were washed twice with 2% FBS in PBS and the samples were resuspended in 140 uL 2% FBS in PBS, and analyzed on a FacsCalibur flow cytometer (Becton Dickinson).

[4] = system: hCD32a-H131, hCD32a-R131, hCD32b, hCD16a-V158, hCD64; test: BLI (Fortebio Octet) binding of FcgR analytes to antibodies captured from supernatants; parameters: species or system human
Description: (§1) The binding of antibodies to Fc gamma receptors (FcγRs or FcgRs) was studied using biosensor technologies including Biacore surface plasmon resonance (SPR) and Fortebio Biolayer Interferometry (BLI). SPR studies were performed on a Biacore T100 instrument (GE Healthcare) at 25° C. The Fab fragment from a murine anti-6×His antibody was immobilized on a CM5 sensor chip using EDC/NHS to a density of ˜3000 RU. Various his-tagged FcgRs (7 ug/ml) were captured via the C-terminal his-tag using a contact time of 30 s at 10 ul/min, and the binding of 1.0 μM antibody was evaluated in a running buffer of 10 mM NaPO4, 130 mM NaCl, 0.05% p20 (PBS-T) pH 7.1. FcgRs used for these experiments included CD64 (FcgRI), CD32a-H131 (FcgRIIa-H131), CD32a-R131 (FcgRIIa-R131), CD32b (FcgRIIb), CD16a-V158 (FcgRIIIa-V158), CD16b-NA1 (FcgRIIIb-NA1), and CD16B-NA2 (FcgRIIIb-NA2). BLI experiments were performed on a Fortebio Octet RED instrument (Pall, Fortebio) at 25° C. in 10 mM NaPO4, 130 mM NaCl, 0.05% p20 (PBS-T) pH 7.1. Antibodies were captured out of undiluted expression supernatants on protein A coated sensors, followed by the binding of 1 μM hCD32a-H131, hCD32a-R131, hCD32b, hCD16a-V158, or 0.1 μM hCD64 analytes.
The next set of constructs was used to engineer effector function into the otherwise effector function negative IgG2 isotype. […]

[5] = system: human FcγRs; test: SPR binding to human FcγRs (anti-his Fab captured FcgR-his proteins); settings: 1.0 μM antibody
Description: Binding of the constructs to human FcγRs was measured via SPR. hCD64 and hCD32a-H131 binding data for IgG1.1 and IgG2 molecules were consistent with expected values for the different Fcs. IgG1.1f is the most inert Fc.
as §1, with “Antibodies were captured out of undiluted expression supernatants on protein A coated sensors, followed by the binding of 1 μM hCD32a-H131, hCD32a-R131, hCD32b, hCD16a-V158, or 0.1 μM hCD64 analytes.” left out

Nc1ncnc2c1ncn2[C@@H]1O[C@H](COP(=O)(O)CP(=O)(O)O)[C@@H](O)[C@H]1O [APCP]
Ymax [1]: 97%

B1: 7A11: human anti-CD73 mAb, IgG1za, VK1; VH SEQ ID NO: 88, VL SEQ ID NO: 92 (antibody, V domains shown)
VH: EVQLVESGGGLVQTGRSLRLSCAASGFTFDDYAMHWVRQAPGKGLEWVSDISWNSDIIGYADSVKGRFTISRDNAKNSLYLQMNSLRAEDTALYYCAKDIYGSGSSFFDYWGQGILVTVSS
VL: DIQMTQSPSSLSASVGDRVTITCRASQYISSWLAWYQQKPEKAPKSLIYAASSLQSGVPSRFSGSGSGTDFTLTISSLQPEDFATYYCQQYHSYPPTFGQGTRLEIK
modifications: Synthetic: 7A11 VH; Synthetic: 7A11 VK1
DSC Tm1 (oC) [2]: 64.8 oC | DSC Tm2 (oC) [2]: 70.2 oC | DSC Tm3 (oC) [2]: 82.8 oC | DSC Tonset (oC) [2]: 56.0 oC | competition with 11F11 [3]: competes with 11F11

B2: IgG2.3: antibody with IgG2 constant region with C219S (protein)
constant: ASTKGPSVFPLAPCSRSTSESTAALGCLVKDYFPEPVTVSWNSGALTSGVHTFPAVLQSSGLYSLSSVVTVPSSNFGTQTYTCNVDHKPSNTKVDKTVERKSCVECPPCPAPPVAGPSVFLFPPKPKDTLMISRTPEVTCVVVDVSHEDPEVQFNWYVDGVEVHNAKTKPREEQFNSTFRVVSVLTVVHQDWLNGKEYKCKVSNKGLPAPIEKTISKTKGQPREPQVYTLPPSREEMTKNQVSLTCLVKGFYPSDIAVEWESNGQPENNYKTTPPMLDSDGSFFLYSKLTVDKSRWQQGNVFSCSVMHEALHNHYTQKSLSLSPGK
modifications: left off: another chain or arm of the molecule
notes: antibody with IgG2 constant region with C219S
FcgR binding properties (BLI, supernatants) [4]: appreciable binding to only CD32a-H131

B3: IgG2.3G1-AY-V27: IgG2.3G1-AY with S267E (protein)
chain: ASTKGPSVFPLAPCSRSTSESTAALGCLVKDYFPEPVTVSWNSGALTSGVHTFPAVLQSSGLYSLSSVVTVPSSNFGTQTYTCNVDHKPSNTKVDKTVERKSCVECPPCPAPELLGGPSVFLFPPKPKDTLMISRTPEVTCVVVDVEHEDPEVKFNWYVDGVEVHNAKTKPREEQYNSTYRVVSVLTVLHQDWLNGKEYKCKVSNKALPAPIEKTISKAKGQPREPQVYTLPPSREEMTKNQVSLTCLVKGFYPSDIAVEWESNGQPENNYKTTPPVLDSDGSFFLYSKLTVDKSRWQQGNVFSCSVMHEALHNHYTQKSLSLSPGK
modifications: Synthetic: IgG2.3G1-AY-V27
notes: IgG2.3G1-AY with S267E
FcgR binding properties (SPR) [5]: comparable FcgR binding properties to IgG1f and IgG1f-S267E

B4: IgG2.5G1-AY-V27: IgG2-B-form variant (C131S) hybrid with IgG1f, V27 (protein)
constant: ASTKGPSVFPLAPSSRSTSESTAALGCLVKDYFPEPVTVSWNSGALTSGVHTFPAVLQSSGLYSLSSVVTVPSSNFGTQTYTCNVDHKPSNTKVDKTVERKCCVECPPCPAPELLGGPSVFLFPPKPKDTLMISRTPEVTCVVVDVEHEDPEVKFNWYVDGVEVHNAKTKPREEQYNSTYRVVSVLTVLHQDWLNGKEYKCKVSNKALPAPIEKTISKAKGQPREPQVYTLPPSREEMTKNQVSLTCLVKGFYPSDIAVEWESNGQPENNYKTTPPVLDSDGSFFLYSKLTVDKSRWQQGNVFSCSVMHEALHNHYTQKSLSLSPGK
modifications: left off: another chain or arm of the molecule
FcgR binding properties (SPR) [5]: IgG1f or modified IgG1f like effector functions
